Data on one substance can be found in paper PMC12236821.

The assay deals with AtBAM1 ectodomain (residues 20-629) (Arabidopsis thaliana) (UniProt O49545). Put plainly: ITC. Background: In ITC the heat of successive injections is recorded.
Chain of UniProt O49545 (O49545 20-629): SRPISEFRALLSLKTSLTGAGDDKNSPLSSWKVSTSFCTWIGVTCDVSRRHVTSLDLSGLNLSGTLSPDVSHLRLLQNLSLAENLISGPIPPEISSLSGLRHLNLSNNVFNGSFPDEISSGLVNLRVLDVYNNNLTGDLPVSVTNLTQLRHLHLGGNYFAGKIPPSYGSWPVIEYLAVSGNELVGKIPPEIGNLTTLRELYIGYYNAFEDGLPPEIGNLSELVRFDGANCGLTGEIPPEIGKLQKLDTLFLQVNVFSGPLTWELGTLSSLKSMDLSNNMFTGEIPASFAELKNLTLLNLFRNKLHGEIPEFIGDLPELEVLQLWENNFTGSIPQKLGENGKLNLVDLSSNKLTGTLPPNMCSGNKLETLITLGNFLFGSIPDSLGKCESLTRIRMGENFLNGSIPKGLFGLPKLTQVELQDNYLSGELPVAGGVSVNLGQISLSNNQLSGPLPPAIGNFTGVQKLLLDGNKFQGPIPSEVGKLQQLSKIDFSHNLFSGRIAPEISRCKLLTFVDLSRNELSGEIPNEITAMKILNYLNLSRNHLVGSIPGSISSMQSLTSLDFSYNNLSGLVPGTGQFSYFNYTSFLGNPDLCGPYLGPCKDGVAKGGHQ

In the case of AtCLV3p (Arabidopsis CLAVATA3 peptide), the fold lower affinity than AtCLE13p is 1000 fold.
